Values of other authors as cited in publication PMC2913173.

Target: Bcl-2 (Homo sapiens) (UniProt P10415)
Experiment: fluorescence polarization

Bcl-2 (Homo sapiens), sequence (P10415 whole entry): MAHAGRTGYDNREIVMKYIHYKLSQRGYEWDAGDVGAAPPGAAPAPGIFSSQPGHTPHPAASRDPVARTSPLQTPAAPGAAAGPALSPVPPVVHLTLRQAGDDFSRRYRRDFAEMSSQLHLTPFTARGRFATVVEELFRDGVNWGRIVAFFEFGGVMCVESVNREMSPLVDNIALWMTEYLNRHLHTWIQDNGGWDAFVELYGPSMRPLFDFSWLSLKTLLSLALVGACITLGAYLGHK

- Kd: 1600 nM
Substance: Bak 72-87 (from UniProt Q16611)
